Laboratory results reported in patent publication US20090305339A1, “Polypeptides With Laccase Activity” (VIALACTIA BIOSCIENCES (NZ) LIMITED, priority 2006, published 2009).

Tests used:
[1] = Decolorization of Poly R-478; type: biochemical; settings: Poly R-478 0.025%, pH 4.5, room temperature, 0.2 units enzyme, 3500 min
Method: Decolorization of Poly-R 478 (0.025 w/v) in the presence or absence of HOBt (1-Hydroxybenzotriazole) (0.9 mM) was determined spectrophotometrically (520 nm) at room temperature in 100 mM sodium phosphate buffer pH 4.5.

[2] = pH- and temperature-dependent activity and inactivation profiles; type: biochemical
Method: FIG. 2A represents the effect of various pH values on the activity of recombinant purified RL5 laccase. The activity was measured at 40° C. using 1 mM SGZ (syringaldazine) or DMP as substrate. The buffers (100 mM) used were: citrate (pH 3.0-5.5), MES (pH 5.5-7.0), HEPES (pH 7.0-8.0), Tris-HCl (pH 8.0-9.0) and glycine-NaOH (pH 9.0-12). The activity of RL5 for DMP reached an optimum at a broad pH ranging from 3.5-9.0, being optimal at 4.0-5.0; however, it maintained more than 70% activity at pH 3.5 and 9.0 (FIG. 2A).
FIG. 2B represents the pH inactivation of purified RL5 laccase in sodium citrate pH 4.5 (indicated with “∘”) or glycine-NaOH pH 9.0 (indicated with “[…]”) over a time period of 240 min. 100% activity in the purified protein sample equals 7.2 units/mg (measured at 40° C.).
FIG. 2C represents the effect of the temperature on the activity of recombinant purified RL5 laccase. The enzyme activity was assayed at each indicated temperature in sodium citrate pH 4.5 in the presence of 1 mM SGZ or DMP. Activity was monitored at 420 nm. Protein activity increased as the temperature was raised to a maximum at ˜60° C. Therefore, RL5 is stable at high temperatures.
FIG. 2D represents the thermal inactivation of purified RL5 laccase. Purified enzyme was incubated in vials at 60° C. ([…]) or 65° C. (∘). At the indicated times, samples were withdrawn and tested for laccase activity at 40° C. by using SGZ or DMP as a substrate. 100% activity in the purified protein sample equals 17.2 units/mg.
Corresponding experiments were performed with BT4389 and YfiH under conditions as described above for FIGS. 2A to 2D (data not shown). The activity of these enzymes reached an optimum at a temperature of 52° C. (for BT4389) and 44° C. (for YfiH) and the thermal activity maintained for more than 80% at 55° C. (for BT4389) and at 50° C. (for YfiH). The activity of both enzymes reached an optimum at a pH range from 4.5 to 6.0 (for BT4389) and from 5.5 to 8.4 (for YfiH), although 80% activity maintained at pH 4.0 to 7.5 (for BT4389) and 5.0 to 9.0 (for YfiH).
Laccase activity was determined spectrophotometrically in a thermostated spectrophotometer (Perkin-Elmer) at 40° C. in 100 mM sodium citrate buffer, pH 4.5 (1 ml). The standard assay was performed at 530 nm, using SGZ as the oxidation substrate (ε530=64,000 M^−1cm^−1). The reaction was started by adding SGZ, from a stock solution in methanol, to a final concentration of 20 μM. […] Oxidation of phenol red (75 μM) was determined by the decrease in absorbance at 432 nm. The activity:pH and activity:temperature relationships were determined by incubating the enzyme:substrate mixtures at different pH values and constant temperature (40° C.), and at different temperatures (15-80° C.) and constant pH (4.5), respectively. Catalytic constants were derived by fitting the experimental data onto the Michaelis-Menten model. Control measurements without enzyme were carried out to correct for possible chemical oxidation of the substrates.

B1: RL5: polypeptide with laccase activity from bovine rumen metagenome library, amino acid sequence of FIG. 11 (protein)
chain: MIELEKLDFAKSVEGVEAFSTTRGQVDGRNAYSGVNLCDYVGDDALRVLDARLTLAMQLGVDLDDLVMPRQTHSCRVAVIDERFRALDIDEQEAALEGVDALVTRLQGIVIGVNTADCVPIVLVDSQAGIVAVSHAGWRGTVGRIAKAVVEEMCRQGATVDRIQAAMGPSICQDCFEVGDEVVEAFKKAHFNLNDIVVRNPATGKAHIDLRAANRAVLVAAGVPAANIVESQHCSRCEHTSFFSARRLGINSGRTFTGIYRK
modifications: Description of sequence Amino acid sequence of RL5 laccase 3217 to 2414 frame 1 - 262 amino acids (see Figure 11)
- Poly R-478 solution oxidized [1]: more than 70%
- pH optimum of activity ([2]; 40° C., 1 mM substrate, 100 mM buffers): 4.0-5.0 pH
- activity maintained at pH 3.5 and 9.0 ([2]; DMP, 40° C.): more than 70%
- broad pH range of activity ([2]; DMP, 40° C.): 3.5-9.0 pH
- thermal stability ([2]; incubated at 60° C. or 65° C.): highly stable at this temperatures over a long time period, for at least four hours
- 100% activity in the purified protein sample ([2]; pH inactivation experiment, measured at 40° C.): 7.2 units/mg
- temperature optimum of activity ([2]; sodium citrate pH 4.5, 1 mM SGZ or DMP): ~60 °C
- pH stability ([2]; sodium citrate pH 4.5 or glycine-NaOH pH 9.0, 240 min): highly stable over a long time period at these pHs
- 100% activity in the purified protein sample ([2]; thermal inactivation experiment, tested at 40° C., SGZ or DMP): 17.2 units/mg
